# Data from the DeepSol protein solubility set.
# Test: soluble on expression in E. coli; label from the status in PepcDB or PDB records
row,Sequence,soluble on expression in E. coli
1,MGSDKIHHHHHHVVQKFNRLFGKSNKGVGIELAPERVNVVQLRKQRQGLKLETFTSVAVPEGVVTDGQITDPAAMAQLIQQALAESKIKTTRVATGVPGRDSIVRIIPVPTELDDKELREMVLNHEAGLYLPYPREEADVDYQKLDYFVDEDGIEKVHVLLVATRKEITDTYISTFEQAGLQIDVLEINSFALIRTIREQLRQFGPQEAAVLVDIEFDSTEIAIIVNGVPQFSRTVPIGTYQMQTALARAMSLPTSRDMELLHGMIIPPTPLDGGKTGVTEIDPGMAAILRVLGELTDELRRSIDFYLNQSENLEVAQILLAGPGGGLQQLDEFFTQRLSLPTTQIDPIGSLSLEVDTDKYPQVKRSGLAIVLGLGMREV,not soluble
2,MNIKLSFISIAFLSLSFNVAANEFEKSQEHYKSVTDLKNKIEILELEKKITELSGEIRNARMPKIDKSAPVLSPQPVVKSSEELQKSIEHIEEELKVELAYLVNNGQQKKYTFNLNGKLITLVNGDFVNGWKFIEDQNKIQFSKGNKVIDVN,not soluble
3,MNPERSERIEIPVLPLRDVVVYPHMVIPLFVGREKSIRCLEAAMDHDKKIMLVAQKEASTDEPGVNDLFTVGTVASILQMLKLPDGTVKVLVEGLQRARISALSDNGEHFSAKAEYLESPTIDEREQEVLVRTAISQFEGYIKLNKKIPPEVLTSLNSIDDPARLADTIAAHMPLKLADKQSVLEMSDVNERLEYLMAMMESEIDLLQVEKRIRNRVKKQMEKSQREYYLNEQMKAIQKELGEMDDAPDENEALKRKIDAAKMPKEAKEKAEAELQKLKMMSPMSAEATVVRGYIDWMVQVPWNARSKVKKDLRQAQEILDTDHYGLERVKDRILEYLAVQSRVNKIKGPILCLVGPPGVGKTSLGQSIAKATGRKYVRMALGGVRDEAEIRGHRRTYIGSMPGKLIQKMAKVGVKNPLFLLDEIDKMSSDMRGDPASALLEVLDPEQNVAFSDHYLEVDYDLSDVMFVATSNSMNIPAPLLDRMEVIRLSGYTEDEKLNIAKRHLLPKQIERNALKKGELTVDDSAIIGIIRYYTREAGVRGLEREISKLCRKAVKQLLLDKSLKHIEINGDNLHDYLGVQRFDYGRADNENRVGQVTGLAWTEVGGDLLTIETACVPGKGKLTYTGSLGEVMQESIQAALTVVRARAEKLGINPDFYEKRDIHVHVPEGATPKDGPSAGIAMCTALVSCLTGNPVRADVAMTGEITLRGQVLPIGGLKEKLLAAHRGGIKTVLIPFENKRDLEEIPDNVIADLDIHPVKRIEEVLTLALQNEPSGMQVVTAK,not soluble
4,KNTPVRMRGTLQDITERTKIEDSLLLSEERYRSFIQNFTGIAFQQDEDLNLEFVKGNVEEITGYSEEELMSKKRWRKIVEKQDLPLFLKKEREIKNARSPYSGKLSYRIRCKDGKIKWVHEVYQKIPGKN,not soluble
5,MGSDKIHHHHHHAGTYNPKNTTSFNINKSNYVAKGRIYKLRLPAAGRVVTNSDITLKNSMEWTCIPYGKDKNTYYLRKGTYYLTSSKNTNVKTAYTRLTKIRKNLETYVETKKNNDNSSLRAREIKVGQKIKAMGAMYDYDGIDYYRFTIDSPQMVTMKMTNAPIYQLGNGNIFSKMGITMFSDNNPVGDNTILYPETFSSKGNKSASQSWYLAKGTYYFSVSTRGLYNFQLTAVPDTRMVPADTEIESLKDTKDGVVASLRDALHAKTYELAWREKGSKFAPFSSSSNTTKVSTASATRYLKVNGHEIPVQIGRKLVNGQTYEFVARGVSNPNYIRYGNPETDNYFGAWTKIVEHTYYAPANGVPGAVELNAQADNTYHNIHVSWTKIDTAQSYRVAYRQKGTNKWYYEVTDQDSNAVTGITRNKTYELKLQALNGKEEGPWSTVKEVFLK,not soluble
6,MAVYRTVQVNFWQDDFVLDLTPEERYFYVYLLTCSKTTQCGIFPFPKRLAEMETGYNRETVDKLVQRFVDYGKILYDAETRELFVLNWLRYNPVTNTNVEKCVLRELKGVKNKEFVHMFLQKCVEEELNVPMLLAHFGMPSDLAVDDVEPVCEEAEEEEVIEEETGSRVFSFYEQHFGSLSPHTVEELSAWMEDLSEELVLKALQIAFENNKRTVAYVKGILRGWHGKGFTKVSEVEADTASFRKKDLSVSTGETEEFLARCEEWEKNAPSEEELQRFLAERGWRP,soluble
7,MGSMDQSIAVKSPLTYAEALANTIMNTYTVEELPPANRWHYHQGVFLCGVLRLWEATGEKRYFEYAKAYADLLIDDNGNLLFRRDELDAIQAGLILFPLYEQTKDERYVKAAKRLRSLYGTLNRTSEGGFWHKDGYPYQMWLDGLYMGGPFALKYANLKQETELFDQVVLQESLMRKHTKDAKTGLFYHAWDEAKKMPWANEETGCSPEFWARSIGWYVMSLADMIEELPKKHPNRHVWKNTLQDMIKSICRYQDKETGLWYQIVDKGDRSDNWLESSGSCLYMYAIAKGINKGYLDRAYETTLLKAYQGLIQHKTETSEDGAFLVKDICVGTSAGFYDYYVSRERSTNDLHGAGAFILAMTELEPLFRSAGK,soluble
8,MSRVYTLLTGLLLSLIALSLQAAQLTASVDRTRLNAGETVELTLETDDVTQFGKPDMSSLEASFEVRDTRQLNSLKTLDGSSQATTRWIVTLLPRETGSVIIPSLQLGELKSQPLTLQVMQSETKEPTSHLASIFIEASLDQDSVYVQAQAVLTLRVYHSVSLFDDSSLN,not soluble
9,IFNGRPAQKGTTPWIAMLSHLNGQPFCGGSLLGSSWIVTAAHCLHQSLDPKDPTLRDSDLLSPSDFKIILGKHWRLRSDENEQHLGVKHTTLHPQYDPNTFENDVALVELLESPVLNAFVMPICLPEGPQQEGAMVIVSGWGKQFLQRFPETLMEIEIPIVDHSTCQKAYAPLKKKVTRDMICAGEKEGGKDACAGDSGGPMVTLNRERGQWYLVGTVSWGDDCGKKDRYGVYSYIHHNKDWIQRVTGVRN,soluble
10,MNNVSEERVAEMIWDAVSEGATLKDVHGIPQDMMDGLYAHAYEFYNQGRLDEAETFFRFLCIYDFYNPDYTMGLAAVCQLKKQFQKACDLYAVAFTLLKNDYRPVFFTGQCQLLMRKAAKARQCFELVNERTEDESLRAKALVYLEALKTAETEQHSEQEKELEHHHHHH,soluble
11,MNPNPNVKYPIEGNQNVHFIKNTITKANILVGDYSYYDAKDGETFEDRVLHHYEFLGDRLIIGKFCCIASGVTFIMNGANHRMDGFSAYPFNIFGNGWEKYTPNLSDLPYKGDTVIGNDVWIGMDATIMPGIKIGDGAIIAAKSVVTRDVAPYTIVGGNPANKIRERFSNAIIEELLQIQWWHFDIEKITENIGAIVQGNIEPLRKLKRE,not soluble
12,MASIADAIGKILTAHSPYPAVVVDRHWNMVDANDAVAVLTEGCAAELLEPPVNVLRLSLHPDGMAPRILDLAQWRGHLLHRLRHQIAVTGDDGLRDLLRELEGYPGGTVGSAELPGSLVVPLRIRHHETVLAFLSTTTMFGTPLDVTVAELAIESFFPADAVTAATLRSSVSSD,soluble
13,GMNKEVDLSVSCLGKVKELKYDVIILPWGATEPHNLHLPYLTDCILPHDIAVEAAELALSRSGVRCMVMPPVPFGAHNPGQRELPFCIHTRYATQQAILEDIVSSLHVQGFRKLLILSGHGGNNFKGMIRDLAFEYPDFLIAAANWFEVVSPKGYFEAEIDDHAGESETSVMMHYHPELVNLAEAGDGESKPFAIASLNEKVAWVPRHWDKATVDSGVGNPKKATAEKGERYVKPIVEKLAGLFEEMAQHDLYE,soluble
14,MTEFESTEDQKPTMLASLDHLSLRNWASPFEEASTPPTASDDSFQSSSEDNLSLRNWAPLSPNPETVKSAKSLRNYSTNPLIPSYICDLCESPKTSELRVAYDAATFQTTYSYSIIWDVEMNDVEHYRKVMETVSKSSANSSRSSFGYFFEARPGMCRLLRTLHNYATDTSQASLADYMIELSGRAPSPVVVKCGHYLCTACFDIVKNADGTYGCSSQQCYWKGSSRQESKKNYENDICRKQRAKALGMKDLGIDVKPASSASSNPIKETSDSSSETNCSLSSGPVSFNHTMLNSLTPVAEHSVAIMMVLVEPLEVYGIVHSYVEMSFPLDTNLAKALGVMLHRKKKILGDYVANGKLYFGFVNDDEKIGMRRIKSNYYDSLMVAEIPKFDDRVVLIFDVGDYVARGFKIYLK,not soluble
15,MTPAELKRLYHIIKVQLEYGLDELLPDHQLTKAPLLMRKSLFWIKNQHPEKPLGERLRLALQELGPVWIKFGQMMSTRRDLFPPHIADPLALLQDQVAPFDGELAKQQMEKALGGPLENWFTEFDIKPLEHHHHHH,not soluble
